± gives the standard deviation of the averaged measurements.
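Also: ATP exposure 15 min at 22 °C before imaging.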

The data set has as its system ATP. The experiment in a line: switch fluorescence ratio, 500 uM ATP over buffer (Cy3 cluster intensity, sum of 5 cycles each) (fold (ratio)); higher = stronger signal-on switching upon ATP binding; sequences stand for … in TCGTCGGCAGCGTCAGATGTGTATAAGAGACAGTTTTTTTTTTTTTTTTTTTTTTTTT…TC. The settings on record: aptamer strand: ATP DNA aptamer (quencher-CACCTGGGGGAGTATTGCGGAGGAAGG + anchor), 100 nM annealed; ATP concentration: 500 uM. In outline: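 Values give the fluorescence ratio for each switch-domain sequence, averaged from per-cluster ratios of summed target-cycle to summed buffer-cycle Cy3 intensity. The Cy3-labelled switching-strand clusters sat on a modified Illumina MiSeq flow-cell, were annealed to 100 nM quencher-labelled ATP aptamer, and were imaged in selection buffer, then after 15 min with 500 uM ATP at 22 °C. Five cycles ran with NaOH stripping and re-annealing between them, and clusters outside 100-1000 RFU were excluded.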
As for TAGGTAAGGT, the switch fluorescence ratio turned out to be 1.03 ± 0.029.

In the case of TGCGCTTGTG, the switch fluorescence ratio is 0.97 ± 0.025.

For the sequence GGTGTCTTAC, the switch fluorescence ratio was determined as 1.01 ± 0.029.

In the case of GCGGGGTTTT, the switch fluorescence ratio was 1.01 ± 0.029.

Turning to TCTAGGAGGT, the switch fluorescence ratio amounted to 0.987 ± 0.028.

For TTTTATTTTC, the switch fluorescence ratio was 0.993 ± 0.027.

Regarding TGGAAATCGT, the switch fluorescence ratio worked out at 1.07 ± 0.083.

Turning to GGGTTTTGGA, the switch fluorescence ratio was determined as 0.998 ± 0.039.

Take ATGTATTGGT: the switch fluorescence ratio came to 0.991 ± 0.026.

In the case of GGGCATGTAC, the switch fluorescence ratio was determined as 1.57 ± 0.15.

For GGAGAAATCT, the switch fluorescence ratio turned out to be 1.12 ± 0.022.

As to TTCCCTAAGG, the switch fluorescence ratio stood at 2.35 ± 1.7.

For the sequence CGTGTATTTC, the switch fluorescence ratio stood at 1.02 ± 0.022.

For AAAATGCGTT, the switch fluorescence ratio is 1.02 ± 0.029.

Regarding ATAAGTGCTG, the switch fluorescence ratio worked out at 0.991 ± 0.017.

For ATTGAGTTGT, the switch fluorescence ratio was 0.947 ± 0.066.

In the case of GCATTTGGGG, the switch fluorescence ratio was 0.9686 ± 0.0032.

Take TCTTGTAGCG: the switch fluorescence ratio was determined as 0.986 ± 0.016.

For CGGTTTAGGT, the switch fluorescence ratio was 0.951 ± 0.017.

Take AAGACATGGG: the switch fluorescence ratio is 1.002 ± 0.0021.

Take GCGACACACT: the switch fluorescence ratio is 1.47 ± 0.058.

Turning to TCTGGATCA, the switch fluorescence ratio was 1.0079 ± 0.00014.

For the sequence ATGAGGGACT, the switch fluorescence ratio was 0.9594 ± 0.0036.

With GGGTTTACCT, the switch fluorescence ratio worked out at 1.05 ± 0.051.

In the case of TATTGCGGTC, the switch fluorescence ratio worked out at 1.005 ± 0.0018.

For TCATTATTCT, the switch fluorescence ratio turned out to be 0.97 ± 0.012.

Take CGCGTAGAC: the switch fluorescence ratio stood at 1.66 ± 0.14.

With TTTTTCAGCA, the switch fluorescence ratio turned out to be 1.04 ± 0.029.

With TGGCCGTATT, the switch fluorescence ratio came to 1 ± 0.056.

GGTTGCTCGT: the switch fluorescence ratio is 1.008 ± 0.0092.

In the case of ATACGAGGGC, the switch fluorescence ratio stood at 1.01 ± 0.028.

In the case of AGGTGATACG, the switch fluorescence ratio amounted to 1.06 ± 0.054.

Turning to TATCTATGAG, the switch fluorescence ratio was 1.01 ± 0.046.

GTGGGGCCGC: the switch fluorescence ratio worked out at 0.979 ± 0.036.

As to TTCAGGAGGA, the switch fluorescence ratio turned out to be 1.03 ± 0.011.

TTTGTTCTGG: the switch fluorescence ratio amounted to 1.49 ± 0.73.

On to TGGTTGGGGT, for which the switch fluorescence ratio is 1.01 ± 0.054.

Consider AGGGCTTAGT, for which the switch fluorescence ratio amounted to 0.995 ± 0.022.

In the case of GGGATGGCTG, the switch fluorescence ratio amounted to 1.01 ± 0.055.

Turning to ATGTTGTCGA, the switch fluorescence ratio is 1.01 ± 0.031.

CGATATCGTG: the switch fluorescence ratio was 1 ± 0.019.

In the case of AGAATCGACT, the switch fluorescence ratio amounted to 0.997 ± 0.014.

As for TTTTTATAGG, the switch fluorescence ratio was 1.008 ± 0.0041.

For ATGAGGGGTA, the switch fluorescence ratio was found to be 1.01 ± 0.026.

Take TGGTCCTCCG: the switch fluorescence ratio came to 1.87 ± 0.31.

For the sequence CTTCAGGGAA, the switch fluorescence ratio worked out at 1.01 ± 0.032.

CTGAAAGGGC: the switch fluorescence ratio stood at 1.03 ± 0.066.

On to TACAGGGGGT, for which the switch fluorescence ratio was found to be 1.02 ± 0.062.

For the sequence CCGTTTAAAA, the switch fluorescence ratio came to 1.11 ± 0.15.

As to TATGTAATTT, the switch fluorescence ratio is 0.9932 ± 0.0092.

Consider AAGGGGCGCC, for which the switch fluorescence ratio turned out to be 0.999 ± 0.052.

For the sequence AGGATGTTAT, the switch fluorescence ratio was determined as 1 ± 0.016.

For GGGAGGAGGT, the switch fluorescence ratio amounted to 0.98 ± 0.024.

For the sequence GGGTGGAATT, the switch fluorescence ratio is 1.005 ± 0.0092.

TGCATGTACC: the switch fluorescence ratio was 1.21 ± 0.051.

Regarding CAATTGCTGT, the switch fluorescence ratio was 1.01 ± 0.012.

For the sequence CCGAAGTCCT, the switch fluorescence ratio was 1.25 ± 0.033.

On to GTAAGATTAT, for which the switch fluorescence ratio amounted to 0.985 ± 0.067.

With ACCCATGCTT, the switch fluorescence ratio turned out to be 1.06 ± 0.013.

ACGTGACCCA: the switch fluorescence ratio amounted to 1.35 ± 0.071.

As to TGCTCGGGGG, the switch fluorescence ratio was 1.15 ± 0.17.

Turning to TGATGGAAGG, the switch fluorescence ratio stood at 0.958 ± 0.06.

As to CATGCGCTTC, the switch fluorescence ratio came out at 2.39 ± 0.12.

On to GCCTGAACTT, for which the switch fluorescence ratio came out at 1.03 ± 0.006.

As to TTTAGGTCAT, the switch fluorescence ratio was found to be 1.01 ± 0.083.

With TTCTGTTTCC, the switch fluorescence ratio was 1.12 ± 0.13.

On to AGGCGGGGTG, for which the switch fluorescence ratio was 1.04 ± 0.024.

TTGATAGGTC: the switch fluorescence ratio came out at 1.01 ± 0.04.

With TATTAGGTGG, the switch fluorescence ratio came to 1.1 ± 0.059.

On to GGTCGGGGGG, for which the switch fluorescence ratio was 1.03 ± 0.037.

On to CGGGGGCTGC, for which the switch fluorescence ratio was found to be 1.13 ± 0.1.

For GTGTGAAAGG, the switch fluorescence ratio came to 1 ± 0.013.

For the sequence CTATATGGAC, the switch fluorescence ratio is 1.05 ± 0.017.

With TAACCGGATT, the switch fluorescence ratio was found to be 1.1 ± 0.053.

In the case of AATAGGCTGG, the switch fluorescence ratio turned out to be 1.03 ± 0.013.

Take TAATGTGGGG: the switch fluorescence ratio stood at 0.9715 ± 0.0056.

Consider TGACCCTATA, for which the switch fluorescence ratio was found to be 1.06 ± 0.028.

Take TTGAAAGTGA: the switch fluorescence ratio came to 1.13 ± 0.25.
